We go through seven molecules from PMC5430550 (Scientific Reports, 2017).

Data set [1] concerns the target T1, RlmH (ribosomal large-subunit methyltransferase H) (Escherichia coli, UniProt P0A8I8).
T1 construct: full length (155 residues, ~17 kDa), first Met replaced by MHHHHHHV (N-terminal His6 tag kept), expressed in E. coli BLR(DE3), homodimer
Put plainly: X-ray crystal structure, […] Å. Conditions: co-crystallised with 2 mM sinefungin, pH 8.5, 16 °C; SAM-binding pocket, two ligands per dimer.

Data set [2] concerns the target RlmH (ribosomal large-subunit methyltransferase H) (Escherichia coli, UniProt P0A8I8, E138Q). Put plainly: isothermal titration calorimetry, sequential binding model. Particulars: 50 mM sodium phosphate pH 6.8, 200 mM KCl, 5% glycerol, 1 mM β-mercaptoethanol, 25 °C; first SAM site of the dimer; read-out: Calculated K D1. The text has this: (§1) isothermal titration calorimetry, sequential binding model on RlmH (ribosomal large-subunit methyltransferase H)

Data set [3] deals with T1, RlmH (ribosomal large-subunit methyltransferase H). The data set is described as above. Particulars: 50 mM sodium phosphate pH 6.8, 200 mM KCl, 5% glycerol, 1 mM β-mercaptoethanol, 25 °C; first SAM site of the dimer; read-out: Calculated K D1.
Description: as §1

Data set [4] has as its target RlmH (ribosomal large-subunit methyltransferase H) (Escherichia coli, UniProt P0A8I8, E138A). The data set is described as above. Conditions: 50 mM sodium phosphate pH 6.8, 200 mM KCl, 5% glycerol, 1 mM β-mercaptoethanol, 25 °C; first SAM site of the dimer; read-out: Calculated K D1.
Description: as §1

For data set [5], the system named is RlmH E138Q (Escherichia coli (ASKA clone JW0631)). Put plainly: competition. Particulars: pseudouridine 1915 lacking N3-methylation (delta-rlmH), Single-turnover competitive methylation assay, mutant pre-incubated with heat-activated 70S ribosomes 20 min at 25 C before wild-type RlmH-[3H]SAM.
Data set [6] relates to RlmH H153F (Escherichia coli (ASKA clone JW0631)). Put plainly: competition. Conditions: pseudouridine 1915 lacking N3-methylation (delta-rlmH), Single-turnover competitive methylation assay, mutant pre-incubated with heat-activated 70S ribosomes 20 min at 25 C before wild-type RlmH-[3H]SAM.
The subject of data set [7] is RlmH R154A (Escherichia coli (ASKA clone JW0631)). Put plainly: competition. Particulars: pseudouridine 1915 lacking N3-methylation (delta-rlmH), Single-turnover competitive methylation assay, mutant pre-incubated with heat-activated 70S ribosomes 20 min at 25 C before wild-type RlmH-[3H]SAM.
In data set [8] the test system is RlmH Y152F (Escherichia coli (ASKA clone JW0631)). Put plainly: competition. Conditions: pseudouridine 1915 lacking N3-methylation (delta-rlmH), Single-turnover competitive methylation assay, mutant pre-incubated with heat-activated 70S ribosomes 20 min at 25 C before wild-type RlmH-[3H]SAM.
Data set [9] concerns RlmH E138A (Escherichia coli (ASKA clone JW0631)). Put plainly: competition. Particulars: pseudouridine 1915 lacking N3-methylation (delta-rlmH), Single-turnover competitive methylation assay, mutant pre-incubated with heat-activated 70S ribosomes 20 min at 25 C before wild-type RlmH-[3H]SAM.
Data set [10] deals with the molecule itself. Put plainly: SEC-MALS; Superdex S-200 HR10/30; 50 mM potassium phosphate pH 7.0, 300 mM KCl, 2 mM DTT, 5% glycerol; dialyzed protein injected at ~20 and ~200 µM (0.35 mg/ml and 3.85 mg/ml); same result at both.

Where a chain is given by its changes, count along the chain named. Names and notes keep the numbering of the source.

RlmH (ribosomal large-subunit methyltransferase H) (Escherichia coli, UniProt P0A8I8, E138Q), sequence (P0A8I8 2-155 E138Q): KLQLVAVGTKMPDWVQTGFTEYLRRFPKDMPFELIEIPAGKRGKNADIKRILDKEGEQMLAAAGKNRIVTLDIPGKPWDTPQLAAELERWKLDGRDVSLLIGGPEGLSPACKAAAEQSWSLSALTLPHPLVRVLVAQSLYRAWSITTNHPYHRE
RlmH (ribosomal large-subunit methyltransferase H) (Escherichia coli, UniProt P0A8I8, E138A), sequence (P0A8I8 2-155 E138A): as the sequence (P0A8I8 2-155 E138Q) above, with Q137A counted along it

As for `Nc1ncnc2c1ncn2[C@@H]1O[C@H](C[C@@H](N)CC[C@H](N)C(=O)O)[C@@H](O)[C@H]1O` [SFG, sinefungin], in data set [1], the “X-ray crystal structure, 2.1 Å” value is “crystal structures of E. coli RlmH bound to the cofactor SAM or to the inhibitor sinefungin”.
Consider `C[S+](CC[C@H](N)C(=O)O)C[C@H]1O[C@@H](n2cnc3c(N)ncnc32)[C@H](O)[C@@H]1O` (stereo partly shown) [SAM, S-adenosyl-methionine], for which the Kd is 7.05 ± 0.56 µM in data set [2], 5.58 ± 0.31 µM in [3] and 6.7 ± 0.77 µM in data set [4].
Regarding “delta-rlmH 70S ribosome (23S rRNA helix 69, pseudouridine 1915)”, the IC50 – broadly, the point on the concentration scale where inhibition reaches its midpoint – in data set [5] worked out at 3 µM; in [6] it was 3 µM; in data set [7], 40 µM; in [8], 3 µM; in data set [9], 3 µM.

B1: ribosomal large-subunit methyltransferase H (RlmH), wild type, His6-tagged (enzyme, E. coli, UniProt P0A8I8 2-155, looked up)
chain: KLQLVAVGTKMPDWVQTGFTEYLRRFPKDMPFELIEIPAGKRGKNADIKRILDKEGEQMLAAAGKNRIVTLDIPGKPWDTPQLAAELERWKLDGRDVSLLIGGPEGLSPACKAAAEQSWSLSALTLPHPLVRVLVAESLYRAWSITTNHPYHRE
notes: RlmH (YbeA) of E. coli, 155 amino acids; rlmH gene from ASKA clone JW0631 in pET24b; no cleavage of the tag is described; Limits 2-155 follow from 'first methionine is replaced' and '155 amino acids'; also called YbeA; WT; source: E. coli BLR(DE3), purified (nickel IMAC twice, SEC on Superdex75); not shown: His6, N-terminal, kept
In the case of B1, in [10], the stoichiometry N (in general, a count of units in the complex or per binding partner) was determined as 2.

B2: RlmH H153F, His6-tagged (enzyme, E. coli, UniProt P0A8I8 2-155, looked up)
chain: B1 chain with H152F
notes: RlmH (YbeA) of E. coli, 155 amino acids; source: E. coli BLR(DE3), purified as the wild-type protein; not shown: His6, N-terminal, kept
For B2, in data set [10], the “stoichiometry N” value was found to be 2.

B3: RlmH R154A, His6-tagged (enzyme, E. coli, UniProt P0A8I8 2-155, looked up)
chain: B1 chain with R153A
notes: as for B2
On to B3, for which the “stoichiometry N” value in [10] turned out to be 2.

B4: RlmH Y152F, His6-tagged (enzyme, E. coli, UniProt P0A8I8 2-155, looked up)
chain: B1 chain with Y151F
notes: as for B2
Take B4: the “stoichiometry N” value in data set [10] worked out at 2.
